According to patent publication US20230331848A1 (BIOSION, published 2023):
Residue numbers refer to the chain shown, from its start.

T1: full length mouse PD-1 expressed on 293F-mouse PD-1 cells (mouse, UniProt Q02242 25-288)
T1 construct: also called cell surface mouse PD-1
T1 sequence: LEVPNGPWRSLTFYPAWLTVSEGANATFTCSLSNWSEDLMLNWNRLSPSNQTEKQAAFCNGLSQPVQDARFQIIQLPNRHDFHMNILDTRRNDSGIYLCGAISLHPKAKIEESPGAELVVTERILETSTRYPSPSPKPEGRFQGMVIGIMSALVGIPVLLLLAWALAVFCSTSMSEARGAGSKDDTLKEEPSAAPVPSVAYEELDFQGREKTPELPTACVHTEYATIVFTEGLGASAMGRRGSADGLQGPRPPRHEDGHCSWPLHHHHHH

B1: mouse anti-PD-1 monoclonal antibody E1A9C8A7 (antibody, V domains shown)
VH: QVQLQQSGAEVVRPGVSVRISCKGSGYTFSDYVMHWMKQSHGESLEWIGVISTYHIPAVYNQKFKGKATMTVDKSSSTVYLELARLTSEDSAIYYCAREVYGDSYYFDVWGAGTTVTVSS
VL: DVLMTQIPLSLPVSLGDQVSISCRSSQSIVHSNGNTYLEWYLQKPGQSPKLLIYKVSNRFSGVPDRFSGSGSGTDFTLKISRVEAEDLGVYYCFQGSHVPYTFGGGTKLEIK
notes: Hybridoma-derived mouse mAb purified on Protein A; also called Mouse E1A9C8A7
B2: mouse anti-PD-1 monoclonal antibody E1G5D1H1 (antibody, V domains shown)
VH: EVQLVESGGGLVKPGGSLKLSCAASGFTFSDFYMYWVRQTPEKRLEWVATISNSGTQTYYLDSVKGRFTISRDNAKNNLYLQMSSLKSEDTAMYYCARDYYRYDSWYFDVWGAGTTVTVSS
VL: DIVLTQSPASLAVSQGQRATISCRASESVDFYGTSLMQWFQLKPGQPPKLLIYAASNVESGVPARFSGSGSGTNFSLNIHPVEEDDIAMYFCQQSRKVPWTFGGGTNLEIK
notes: Hybridoma-derived mouse mAb; also called EIG5D1H1; E1G5DIH1
B3: mouse anti-PD-1 monoclonal antibody E2G4E10B7 (antibody, V domains shown)
VH: QVQLQQSGAELVRPGVSVKISCKGSGYTFTDYVMHWVRQSHAKSLEWIGVISTHFGDGVYNQKFKGKATMTVDKSSSTAYMELARLTSEDSAIYYCAREVYGDSWYFDVWGAGTTVTVSS
VL: B1 VL with I7T, V19A, I29L, N33D, V83L
notes: Hybridoma-derived mouse mAb; also called Mouse E2G4E10B7

Columns and labels:
[1] = molecular target: T2, human PD-1-his protein prepared in-house (human, UniProt Q15116 25-167, biotin-labeled (sites not given)); assay: competitive ELISA: biotin human PD-1-his + antibody on coated Pembrolizumab (competitor)
T2 construct: also called biotin labeled human PD-1-his
Procedure: ELISA plates were washed once with wash buffer (PBST, PBS+0.05% Tween-20) and then blocked with 200 μl/well blocking buffer (5% w/v non-fatty milk in PBST) for 2 hours at 37° C. […] After incubation at 37° C. for 40 minutes, plates were washed using wash buffer, added and incubated with 100 μl/well Peroxidase Streptavidin for 40 minutes at 37° C. Plates were washed again using wash buffer. Finally, TMB was added and the reaction was stopped using 1M H₂SO₄. The absorbance was read on a microplate reader using dual wavelength mode with 450 nm for TMB and 630 nm as the reference wavelength, and the OD (450-630) values were plotted against antibody concentrations. Data was analyzed using Graphpad Prism software and IC₅₀ values were reported.

[2] = molecular target: T3, human PD-1 expressed on GS-J2/PD-1 cells (Genscript) (human, UniProt Q15116 25-288); assay: cell-based or functional assay
[3] = molecular target: T1, full length mouse PD-1 expressed on …; assay: cell-based blocking FACS: 293F-mouse PD-1 cells incubated with antibody, then with mouse PD-L1-hFc (blocked ligand), detected with anti-human IgG Fc-PE; unit from the axis 'Con of mAb, nM.'
Procedure: Briefly, 293F-mouse PD-1 cells were harvested from cell culture flasks, washed twice and re-suspended in PBS containing 2% v/v Fetal Bovine Serum (FACS buffer). Then, 1×10⁵ cells per well in 96 well-plates were incubated in 100 μL of the anti-PD-1 antibodies or controls at various concentrations (starting at 80 nM with a 3-fold serial dilution) in FACS buffer for 40 minutes at 4° C. […] The plates were washed twice with FACS buffer, and then added and incubated for 40 minutes at 4° C. in dark with 100 μl/well R-Phycoerythrin AffiniPure Goat Anti-Human IgG, Fcγ fragment specific (1:1000 dilution in FACS buffer, Cat#:109-115-098, Jackson Immunoresearch). Cells were washed twice and re-suspended in FACS buffer. Fluorescence was measured using a Becton Dickinson FACS Canto II-HTS equipment. Data was analyzed using Graphpad Prism software and IC₅₀ values were reported.

[4] = molecular target: T4, in house made human PD-1-Fc protein (human, biotin-labeled (sites not given)); assay: competitive ELISA: antibody pre-mixed with biotin-labeled human PD-1-Fc, added to coated human PD-L1-Fc (blocked ligand); unit from the axis 'Con of mAb, nM.'
T4 construct: also called biotin-labeled human PD-1-Fc
Procedure: (§1) The activities of the anti-PD1 antibodies of the disclosure to block PD-L1-PD1 binding were measured in a competitive ELISA.
(§2) Briefly, 100 μl human PD-L1-Fc protein (prepared in-house with SEQ ID NO: 28) at 2 μg/mL in carbonate/bicarbonate buffer (pH 9.6) was coated on 96-well micro plates overnight at 4° C., Plates were washed with wash buffer (PBS+0.05% w/v Tween-20, PBST), and blocked with 5% w/v non-fatty milk in PBST for 2 hours at 37° C. […] After incubation at 37° C. for 40 minutes, plates were washed using wash buffer. […] Plates were washed again using wash buffer. Finally, TMB was added and the reaction was stopped using 1M H₂SO₄. The absorbance was read on a microplate reader using dual wavelength mode with 450 nm for TMB and 630 nm as the reference wavelength, then the OD (450-630) values were plotted against antibody concentrations. Data was analyzed using Graphpad Prism software and IC₅₀ values were reported.

[5] = molecular target: T3, human PD-1 expressed on GS-J2/PD-1 …; assay: flow cytometry on GS-J2/PD-1 cells
Procedure: In specific, the 293F-mouse PD-1 cells and GS-J2/PD-1 cells were respectively harvested from cell culture flasks, washed twice and re-suspended in PBS containing 2% v/v Fetal Bovine Serum (FACS buffer). Then, 2×10⁵ cells per well were incubated in 96 well-plates with 100 μl of the anti-PD1 antibodies or controls at various concentrations for 40 minutes on ice. […] Following an incubation of 40 minutes at 4° C. in dark, cells were washed three times and re-suspended in FACS buffer. Fluorescence was measured using a Becton Dickinson FACS Canto II-HTS equipment and plotted against antibody concentrations. Data was analyzed using GraphPad Prism software and EC₅₀ values were reported.
For the cell-based binding FACS, R-Phycoerythrin AffiniPure Goat Anti-human IgG Fcγ fragment specific (Cat#:109-115-098, Jackson ImmunoResearch) was used for the humanized antibodies, with 1:1000 dilution in FACS buffer, 100 μl/well.

[6] = molecular target: T4, in house made human PD-1-Fc protein; assay: competitive ELISA: biotin human PD-1-Fc + antibody on coated human PD-L1-Fc (competitor)
Procedure: as §2

[7] = molecular target: T4, in house made human PD-1-Fc protein; assay: competitive ELISA: antibody pre-mixed with biotin-labeled human PD-1-Fc, added to coated human PD-L1-Fc (blocked ligand); unit from the axis 'Con of mAb, nM.'; remark: listed apart in the source
Procedure: as §1, §2

Binder | IC50 [1] [pM] | Cell-based functional assay (EC50, nM) [2] [nM] | IC50 [3] [pM] | IC50 [4] [pM] | EC50 [5] [pM] | IC50 [6] [pM] | IC50 [7] [pM]
B1 | 480 | 6.62 | 6860 | 450 | 440 | 370 | –
B2 | – | – | – | – | – | – | 434
B3 | – | – | 2490 | 428 | – | – | –
